Measured values: publication PMC7699624

Target: Recombinant P-selectin protein (UniProt P16109)
Assay: SPR; BIAcore T200; recombinant P-selectin immobilised by carbodiimide chemistry on a CM4 sensor chip (ligand); PSGL-1-targeted and non-targeted liposomes as analyte

UniProt P16109, sequence (P16109 42-830): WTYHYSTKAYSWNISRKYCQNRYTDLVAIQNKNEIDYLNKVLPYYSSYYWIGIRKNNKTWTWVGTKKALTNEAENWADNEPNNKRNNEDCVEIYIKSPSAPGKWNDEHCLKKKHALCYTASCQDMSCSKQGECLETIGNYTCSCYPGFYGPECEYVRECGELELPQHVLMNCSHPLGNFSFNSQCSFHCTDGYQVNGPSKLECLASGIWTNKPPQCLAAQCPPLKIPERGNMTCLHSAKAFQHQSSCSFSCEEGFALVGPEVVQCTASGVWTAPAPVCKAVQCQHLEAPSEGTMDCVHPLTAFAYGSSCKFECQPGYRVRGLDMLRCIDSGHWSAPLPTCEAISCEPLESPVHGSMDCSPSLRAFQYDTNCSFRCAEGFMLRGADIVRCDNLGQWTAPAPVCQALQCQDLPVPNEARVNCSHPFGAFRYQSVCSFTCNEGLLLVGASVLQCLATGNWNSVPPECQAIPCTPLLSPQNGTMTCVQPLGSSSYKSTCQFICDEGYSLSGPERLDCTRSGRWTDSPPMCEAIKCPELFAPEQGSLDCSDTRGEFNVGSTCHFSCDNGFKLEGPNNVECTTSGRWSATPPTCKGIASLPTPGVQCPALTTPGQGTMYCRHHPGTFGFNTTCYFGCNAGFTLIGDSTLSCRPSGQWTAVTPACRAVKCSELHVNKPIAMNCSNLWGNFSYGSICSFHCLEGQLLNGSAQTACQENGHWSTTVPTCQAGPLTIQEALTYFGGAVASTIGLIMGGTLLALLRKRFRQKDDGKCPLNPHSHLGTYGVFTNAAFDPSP

fold increase in binding against non-targeted liposomes: 8 fold
Substance: Recombinant P-selectin glycoprotein ligand-1 (PSGL-1) protein, conjugated to the surface of liposomes (from UniProt Q14242 42-412)
